The series concerns the molecule itself. Put plainly: SEC. (SEC sorts molecules by how far they enter the pores of the column.)

B1: His-PodJ(1-635) (domain or fragment, Caulobacter crescentus, UniProt Q9ZG88 1-635, looked up)
chain: MTAASPWSVKGIDPKAREVAKDLARRSGMTLGEWLNRMIIEGDGQTADPRLAGDDVPNRAYLEIVKDDAPPRIEIAEHPADEVGRVALALDRLTQRIEAAEGRNAAAITGIDHSVRDALTRLGASEREQIAVAARFEGAVDELKTEQARATERLRRIESEAAGPRSAEALRALEGALGKVAGHLYEGEARTREAIATLEAKLNQQSSGDPSALVEAVVARLGERLEAAETRTSDALRELGASFQALDQRLGAVETANPATGVQEGLDSLAATLTQKMEAARLEMAAKLRESADGRFDRMERKLGEMAAHVQAAEQRSAQAIERMGREIVGVADAFNRRVHAAESRNASAIEQVGGEVARIAASVEHKLNRADSVQAQALEKLGGEIARITEKLAERIGSAERRNALAIDDVGEQVARVTERLNQRHERSSQELVDRIRQSEERTLRMLEEAREKIDSRLSEAQRKLEAAPPSPPPAQAPAPVATAQRPVPPAASPFEDNYFSQAASFSTSEDEADAFDAPPAPARSFEVAEFPAAEPEEPAFAHDDYAIADGFEPESPRYEVEPEVSDFAPAEPSRPMSTRDIIEQARAAARAAAASEGKGGKAKSAKKEKASKASGSLFSGFGGFSTKKSKARL
On to B1, for which the binding result is recorded as “binds”.

The record behind these values is article doi:10.1101/2021.07.20.452843 (bioRxiv, 2021).
